In PMC12700547, “Auranofin attenuates TOPBP1-mediated ATR replication stress response and improves chemotherapeutic response in breast tumor models” (The Journal of Clinical Investigation, 2025):
Where no end group is shown, it is not given here. [ ]: non-standard residue; d: D form. pT = C[C@@H](OP(=O)(O)O)[C@H](N)C(=O)O

B1: biotin-Y989 peptide (Y989-containing peptide of the TOPBP1 AAD) (peptide)
peptide: ECKHLPESLYPHTYN
modifications: not fully specified (N-terminus); printed as ECKHLPESLY_989_PHTYN; also: biotin, position not given here
B2: biotin-F1071 peptide (F1071-containing peptide of the TOPBP1 AAD) (peptide)
peptide: TLEMRENFQKQLQEI
modifications: not fully specified (N-terminus); printed as TLEMRENF_1071_QKQLQEI; also: biotin, position not given here
B3: biotin-APS peptide (acidic patch sequence of PHF8) (peptide)
peptide: GACFKDAEYIYPSLESDDDDPA
modifications: not fully specified (N-terminus); also: biotin, position not given here
notes: also called PHF8/APS peptide
B4: biotin-pFANCJ peptide (phosphorylated Thr1133 containing peptide of FANCJ) (peptide)
peptide: EAEDESIYF[pT]PELYDPEDT
modifications: not fully specified (N-terminus); printed as EAEDESIYF(pT)PELYDPEDT; also: biotin (site not given here)
notes: also called phosphorylated FANCJ peptide

Assays:
auranofin = experiment: BLI; conditions: auranofin 25, 50, 100, 200 µM; n = 2; parent: 2.358E-5 M
[1] = target: T1, His-tagged recombinant TOPBP1 BRCT 7–8 (UniProt Q92547 1264-1493); experiment: BLI; Octet RED96; biotin-peptides immobilized on biosensors; His-tagged BRCT 7–8 (1 μM) alone or preincubated with a serial dilution of compound (auranofin) as analyte; PBS with 0.1% BSA, 0.02% Tween-20, 1% DMSO; 2 minutes of dissociation; 1:1 binding model with local fit; conditions: both partners purified
T1 construct: The cited crystal structures 7CMZ and 3AL3 hold BRCT 7–8; also called BRCT 7–8/WT; His-tagged BRCT 7–8; source: E coli cells, purified
T1 sequence (Q92547 1264-1493): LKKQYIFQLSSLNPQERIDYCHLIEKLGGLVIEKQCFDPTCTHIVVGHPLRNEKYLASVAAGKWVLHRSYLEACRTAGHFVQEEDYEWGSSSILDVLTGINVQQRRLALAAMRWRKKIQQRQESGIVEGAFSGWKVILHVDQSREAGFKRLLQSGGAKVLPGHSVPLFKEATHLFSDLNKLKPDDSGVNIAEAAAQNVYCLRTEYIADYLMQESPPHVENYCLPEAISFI

Molecule	Kd (auranofin)	binding result [1]
His-tagged recombinant TOPBP1 BRCT 7–8 (from UniProt Q92547) F1411A	4.22 mM	–
B1	–	binds
B2	–	binds
B3	–	binds
B4	–	binds
